Results on one substance are retold here after paper doi:10.1101/2023.12.24.573241.

Test [1] concerns the target Taxol-stabilized microtubules polymerized from pig brain tubulin, labeled with biotin and AZDye647 (pig) (UniProt P02550). Description: TIRF single-molecule motility assay.
Test [2] concerns the target DmUNC-104^bris (full-length DmUNC-104 R562H, C-terminal sfGFP and 2xStrep-tag II) (Drosophila melanogaster) (UniProt A1ZAJ2). Description: mass photometry.

Sequence of UniProt P02550 (P02550 whole entry): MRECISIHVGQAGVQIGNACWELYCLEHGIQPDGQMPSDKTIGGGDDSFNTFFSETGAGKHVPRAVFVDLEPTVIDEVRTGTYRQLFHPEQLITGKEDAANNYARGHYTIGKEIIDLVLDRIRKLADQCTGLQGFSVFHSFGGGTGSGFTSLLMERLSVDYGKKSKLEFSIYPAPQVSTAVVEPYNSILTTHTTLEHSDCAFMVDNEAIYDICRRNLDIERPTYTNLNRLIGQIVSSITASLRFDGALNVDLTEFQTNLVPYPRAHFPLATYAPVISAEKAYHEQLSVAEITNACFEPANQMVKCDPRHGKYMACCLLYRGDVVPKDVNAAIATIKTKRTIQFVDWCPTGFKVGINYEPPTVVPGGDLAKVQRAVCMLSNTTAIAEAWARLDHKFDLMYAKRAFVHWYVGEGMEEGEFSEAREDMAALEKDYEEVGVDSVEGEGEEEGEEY

With “DmUNC-104^bris (full-length DmUNC-104 R562H, C-terminal sfGFP and 2xStrep-tag II) (from UniProt A1ZAJ2 1-1670) (natural protein)”, in test [1], the landing rate (median) (molecules/µm/s) amounted to 0.034 and the landing rate of motile motors (median) (molecules/µm/s) was found to be 0.015. In addition, in test [2], the percent of particles as dimer came to 71% and the stoichiometry N (usually the number of molecules, sites or subunits per partner or assembly) stood at 2.
